In the experiment the target is T1, ACADVL (mouse (endogenous in heart and kidney)), P50544.
T1 chain: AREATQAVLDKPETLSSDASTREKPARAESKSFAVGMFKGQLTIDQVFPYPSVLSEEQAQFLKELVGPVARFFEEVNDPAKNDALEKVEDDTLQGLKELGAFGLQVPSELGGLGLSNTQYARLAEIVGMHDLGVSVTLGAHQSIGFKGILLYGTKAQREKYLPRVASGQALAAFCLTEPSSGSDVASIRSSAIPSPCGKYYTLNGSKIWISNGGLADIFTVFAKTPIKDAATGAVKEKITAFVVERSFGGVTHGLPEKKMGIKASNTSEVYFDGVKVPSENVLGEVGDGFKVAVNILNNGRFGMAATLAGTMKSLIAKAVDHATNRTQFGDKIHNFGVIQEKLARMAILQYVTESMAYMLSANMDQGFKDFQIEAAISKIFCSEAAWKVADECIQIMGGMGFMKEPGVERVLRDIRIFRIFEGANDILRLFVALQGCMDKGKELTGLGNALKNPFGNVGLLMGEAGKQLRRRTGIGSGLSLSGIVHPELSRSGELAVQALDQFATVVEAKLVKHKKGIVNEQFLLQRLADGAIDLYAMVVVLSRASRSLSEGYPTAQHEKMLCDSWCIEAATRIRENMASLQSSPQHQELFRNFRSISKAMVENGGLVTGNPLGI
As to the kind of experiment: cryo-EM structure. As to conditions: remark: other sources report otherwise.

The results in this text go back to doi:10.1101/2023.07.17.549284.

B1: ACADVL, P50544 42-656 (natural protein)
chain: AREATQAVLDKPETLSSDASTREKPARAESKSFAVGMFKGQLTIDQVFPYPSVLSEEQAQFLKELVGPVARFFEEVNDPAKNDALEKVEDDTLQGLKELGAFGLQVPSELGGLGLSNTQYARLAEIVGMHDLGVSVTLGAHQSIGFKGILLYGTKAQREKYLPRVASGQALAAFCLTEPSSGSDVASIRSSAIPSPCGKYYTLNGSKIWISNGGLADIFTVFAKTPIKDAATGAVKEKITAFVVERSFGGVTHGLPEKKMGIKASNTSEVYFDGVKVPSENVLGEVGDGFKVAVNILNNGRFGMAATLAGTMKSLIAKAVDHATNRTQFGDKIHNFGVIQEKLARMAILQYVTESMAYMLSANMDQGFKDFQIEAAISKIFCSEAAWKVADECIQIMGGMGFMKEPGVERVLRDIRIFRIFEGANDILRLFVALQGCMDKGKELTGLGNALKNPFGNVGLLMGEAGKQLRRRTGIGSGLSLSGIVHPELSRSGELAVQALDQFATVVEAKLVKHKKGIVNEQFLLQRLADGAIDLYAMVVVLSRASRSLSEGYPTAQHEKMLCDSWCIEAATRIRENMASLQSSPQHQELFRNFRSISKAMVENGGLVTGNPLGI
One may read the stoichiometry N as a count of units in the complex or per binding partner. Consider B1, for which the stoichiometry N came to 2.
